Test results from patent US20230391883A1 (BEIGENE SWITZERLAND, published 2023).

T1: human TIGIT (form in the assay not stated) (human, UniProt Q495A1 22-141, limits assumed)
T1 construct: whole entry named
T1 sequence: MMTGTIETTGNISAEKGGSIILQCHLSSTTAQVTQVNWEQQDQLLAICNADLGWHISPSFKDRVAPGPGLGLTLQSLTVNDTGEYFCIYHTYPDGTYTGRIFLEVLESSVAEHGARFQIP

T2: full-length human TIGIT on cells (human, UniProt Q495A1 22-244)
T2 construct: Used for engineered cells (NK92mi/TIGIT, NK92MI/TIGIT-DNAM-1, Jurkat/TIGIT) and for TIGIT on human blood cells; also called native TIGIT; huTIGIT
T2 sequence: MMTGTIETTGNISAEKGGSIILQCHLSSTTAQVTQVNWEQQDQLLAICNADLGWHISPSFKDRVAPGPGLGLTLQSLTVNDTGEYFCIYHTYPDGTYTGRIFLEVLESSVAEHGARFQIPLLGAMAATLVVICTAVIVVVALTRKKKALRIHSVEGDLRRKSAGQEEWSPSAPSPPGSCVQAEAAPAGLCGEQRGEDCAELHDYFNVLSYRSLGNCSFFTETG

T3: humanized TIGIT of humanized TIGIT knock-in mice, on CD3+ splenocytes
T3 chain: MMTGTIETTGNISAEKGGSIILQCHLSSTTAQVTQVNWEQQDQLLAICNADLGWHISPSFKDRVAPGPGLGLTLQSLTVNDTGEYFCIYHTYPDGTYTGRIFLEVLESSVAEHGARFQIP

T4: TIGIT-his (human, UniProt Q495A1 22-141)
T4 construct: also called human TIGIT; not shown: his tag
T4 sequence: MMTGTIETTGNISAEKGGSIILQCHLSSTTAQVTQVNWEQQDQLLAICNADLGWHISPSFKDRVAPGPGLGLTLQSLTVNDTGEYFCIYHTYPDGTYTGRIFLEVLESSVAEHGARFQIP

T5: TIGIT-mIgG2a (human; mouse, UniProt Q495A1 22-141)
T5 construct: also called soluble TIGIT; TIGIT-mIgG2a fusion protein
T5 sequence: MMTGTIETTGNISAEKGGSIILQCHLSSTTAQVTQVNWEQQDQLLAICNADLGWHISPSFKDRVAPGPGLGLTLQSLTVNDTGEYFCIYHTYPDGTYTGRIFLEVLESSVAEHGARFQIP

T6: TIGIT-huIgG1 (human, UniProt Q495A1 22-141)
T6 construct: also called Human Fc-tagged TIGIT; TIGIT-huIgG1 fusion protein
T6 sequence: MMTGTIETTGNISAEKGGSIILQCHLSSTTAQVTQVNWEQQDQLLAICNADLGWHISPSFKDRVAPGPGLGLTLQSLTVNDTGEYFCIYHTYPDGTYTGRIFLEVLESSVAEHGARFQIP


How the values were obtained:
[1] = target: T1, human TIGIT (form in the assay not …); test: SPR; antibody captured on anti-human Fc surface, TIGIT analyte not named; Test 1
Source text: (§1) For affinity determination, antibodies were captured by anti-human Fc surface, and used in the affinity-assay based on surface plasmon resonance (SPR) technology.

[2] = target: T1, human TIGIT (form in the assay not …); test: SPR; antibody captured on anti-human Fc surface, TIGIT analyte not named; Test 2
Source text: as §1

[3] = target: T2, full-length human TIGIT on cells; test: flow cytometry on living NK92mi/TIGIT cells, goat anti-human IgG detection; Test 1
Description: (§2) To evaluate the binding activity of anti-TIGIT antibodies to native TIGIT on living cells, NK92mi cells were engineered to over-express human TIGIT. Living NK92mi/TIGIT cells were seeded in 96-well plate and were incubated with a series of dilutions of anti-TIGIT antibodies. Goat anti-Human IgG was used as secondary antibody to detect antibody binding to the cell surface. EC₅₀ values for dose-dependent binding to human native TIGIT were determined by fitting the dose-response data to the four-parameter logistic model with GraphPad Prism. As show in FIG. 4A-B and Table 6.

[4] = target: T2, full-length human TIGIT on cells; test: flow cytometry on living NK92mi/TIGIT cells, goat anti-human IgG detection; Test 2
Description: as §2

[5] = target: T1, human TIGIT (form in the assay not …); test: SPR; antibody captured on anti-human Fc surface, TIGIT analyte not named; mean of Tests 1 and 2
Source text: as §1

[6] = target: T3, humanized TIGIT of humanized TIGIT …; test: TIGIT receptor occupancy assay on CD3+ splenocytes from humanized TIGIT knock-in mice
[7] = target: T2, full-length human TIGIT on cells; test: TIGIT receptor occupancy assay on CD3+ human peripheral blood mononuclear cells; CD3+ human peripheral blood mononuclear cells
TIGIT-his [8] = target: T4, TIGIT-his; test: SPR; antibody immobilized on CM5 chip, TIGIT-his as analyte, HBS pH 6.0
TIGIT-his [9] = target: T4, TIGIT-his; test: SPR; antibody immobilized on CM5 chip, TIGIT-his as analyte, HBS pH 7.4
TIGIT-mIgG2a [10] = target: T5, TIGIT-mIgG2a; test: flow cytometry; blockade of soluble TIGIT binding to PVR on HEK293/PVR cells
Source text: (§3) To determine whether anti-TIGIT antibodies could block TIGIT-PVR and TIGIT-PVR-L2 interactions, HEK293 cells were engineered to express high levels of PVR or PVR-L2. The resultant cell lines were named HEK293/PVR and HEK293/PVR-L2, respectively. […] The blockade of TIGIT-ligand interaction was quantitatively measured by adding serially diluted anti-TIGIT antibodies.

TIGIT-mIgG2a [11] = target: T5, TIGIT-mIgG2a; test: flow cytometry; blockade of soluble TIGIT binding to PVR-L2 on HEK293/PVR-L2 cells
Source text: as §3

TIGIT-his [12] = target: T4, TIGIT-his; test: SPR; antibody immobilized on CM5 chip, TIGIT-his as analyte, HBS pH 6.0; column head prints nM, koff/kon gives M
TIGIT-his [13] = target: T4, TIGIT-his; test: SPR; antibody immobilized on CM5 chip, TIGIT-his as analyte, HBS pH 7.4; column head prints nM, koff/kon gives M
[14] = target: T1, human TIGIT (form in the assay not …); test: SPR; antibody captured on anti-human Fc surface, TIGIT analyte not named; Test 1; Test 1
Source text: as §1

TIGIT-huIgG1 [15] = target: T6, TIGIT-huIgG1; test: SPR (BIAcore T-200); human Fc-tagged TIGIT captured by anti-human IgG, antibody as analyte
Description: (§4) Briefly, anti-human IgG antibody was immobilized on an activated CM5 biosensor chip (Cat. No.: BR100530, GE Life Sciences). Human Fc-tagged TIGIT was flowed over the chip surface and captured by anti-human IgG antibody. Then a serial dilution (0.12 nM to 10 nM) of purified murine antibodies were flowed over the chip surface and changes in surface plasmon resonance signals were analyzed to calculate the association rates (kₒₙ) and dissociation rates (koff) by using the one-to-one Langmuir binding model (BIA Evaluation Software, GE Life Sciences). The equilibrium dissociation constant (KD) was calculated as the ratio koff/kₒₙ.

TIGIT-huIgG1 [16] = target: T6, TIGIT-huIgG1; test: SPR (BIAcore T-200); human Fc-tagged TIGIT captured by anti-human IgG, antibody as analyte; column head prints nM, koff/kon gives M
Description: as §4

Kd [1] | koff [1] | kon [1] | Kd [2] | koff [2] | kon [2] | EC50 [3] | EC50 [4] | Kd [5] | IC50 (TIGIT-mIgG2a [10]) | IC50 (TIGIT-mIgG2a [11]) | Binder | further results
0.309 nM | 0.000448 s⁻¹ | 1.45e+06 M⁻¹ s⁻¹ | 0.52 nM | 0.000694 s⁻¹ | 1.33e+06 M⁻¹ s⁻¹ | 0.114 µg/mL | 0.084 µg/mL | 0.415 nM |  |  | hu1217-1-1 (antibody, V domains shown, Full-length human IgG1mf/kappa format; not shown: human kappa light chain constant region) VH: EVQLVESGGGLVQPGGSLRLSCATSGFTFSDYYMYWIRQAPGKGLEWVAYITKGGGSTYYPDSVKGRFTISRDNAKNTLYLQMNSLRAEDTAVYYCARQTNYDFTMDYWGQGTLVTVSS VL: EIVMTQSPATLSVSPGERATLSCKASQDVGTSVAWYQQKPGQAPRLLIYWASARHTGVPARFSGSGSGTEFTLTISSLQSEDFAVYYCQQYSSYPLTFGGGTKVEIK | 
 |  |  |  |  |  |  |  |  |  |  | hu1217-2-2 (as named in Examples 12 to 14, Fc format not stated) (antibody, V domains shown, kept apart from m7 and m8 for that reason; also called Antibody hu1217-2-2) VH: EVQLVESGGGLVQPGGSLRLSCAASGFTFSDYYMYWVRQAPGKGLEWVAYITKGGGSTYYPDSVKGRFTISRDNAKNTLYLQMNSLRAEDTAVYYCARQTNYDFTMDYWGQGTLVTVSS VL: EIVMTQSPATLSVSPGERATLSCKASQDVGTSVAWYQQKPGQAPRLLIYWASARHTGIPARFSGSGSGTEFTLTISSLQSEDFAVYYCQQYSSYPLTFGGGTKVEIK | EC50 [6]: 0.0488 µg/mL; EC50 [7]: 0.0632 µg/mL
 |  |  |  |  |  |  |  |  | 0.64 µg/mL | 0.25 µg/mL | hu1217-2-2/IgG1wt (antibody, V domains shown, Humanized version with a wild-type IgG1 Fc region and the same VH and VL as hu1217-2-2/IgG1mf) VH: EVQLVESGGGLVQPGGSLRLSCAASGFTFSDYYMYWVRQAPGKGLEWVAYITKGGGSTYYPDSVKGRFTISRDNAKNTLYLQMNSLRAEDTAVYYCARQTNYDFTMDYWGQGTLVTVSS VL: EIVMTQSPATLSVSPGERATLSCKASQDVGTSVAWYQQKPGQAPRLLIYWASARHTGIPARFSGSGSGTEFTLTISSLQSEDFAVYYCQQYSSYPLTFGGGTKVEIK | koff (TIGIT-his [8]): 7.6e-05 s⁻¹; kon (TIGIT-his [8]): 2.54e+06 M⁻¹ s⁻¹; koff (TIGIT-his [9]): 9.53e-05 s⁻¹; kon (TIGIT-his [9]): 434000 M⁻¹ s⁻¹; Kd (TIGIT-his [12]): 0.0299 nM; Kd (TIGIT-his [13]): 0.219 nM
0.127 nM | 0.000229 s⁻¹ |  | 0.404 nM | 0.000608 s⁻¹ | 1.5e+06 M⁻¹ s⁻¹ |  | 0.068 µg/mL | 0.266 nM | 0.55 µg/mL | 0.18 µg/mL | hu1217-2-2/IgG1mf (antibody, V domains shown, not shown: human kappa light chain constant region) VH: EVQLVESGGGLVQPGGSLRLSCAASGFTFSDYYMYWVRQAPGKGLEWVAYITKGGGSTYYPDSVKGRFTISRDNAKNTLYLQMNSLRAEDTAVYYCARQTNYDFTMDYWGQGTLVTVSS VL: EIVMTQSPATLSVSPGERATLSCKASQDVGTSVAWYQQKPGQAPRLLIYWASARHTGIPARFSGSGSGTEFTLTISSLQSEDFAVYYCQQYSSYPLTFGGGTKVEIK | kon [14]: 1.8e+06 M⁻¹ s⁻¹
 |  |  |  |  |  |  |  |  |  |  | mu1217 (antibody, V domains shown, Purified murine hybridoma antibody; also called murine anti-TIGIT mAb mu1217) VH: EVKLVESGGGLVQPGGSLKLSCATSGFTFSDYYMYWIRQTPEKRLEWVAYITKGGGSTYYPDTVKGRFTISRDNAKNTLYLQVSRLKSEDTAIYYCARQTNYDFTMDYWGQGTSVTVSS VL: DIVMTQSHKFMSTSVGDRVSIICKASQDVGTSVAWYQQKPGQSPNLLIYWASARHTGVPDRFTGSGSGTDFTLTISNVQSEDLADYFCQQYSSYPLTFGAGTKLELK | koff (TIGIT-huIgG1 [15]): 3.96e-05 s⁻¹; kon (TIGIT-huIgG1 [15]): 4.33e+06 M⁻¹ s⁻¹; Kd (TIGIT-huIgG1 [16]): 0.00915 nM
0.283 nM | 0.000443 s⁻¹ | 1.56e+06 M⁻¹ s⁻¹ |  |  |  | 0.1 µg/mL |  |  |  |  | ch1217 (antibody, V domains shown, Chimeric: mu1217 variable domains fused to human IgG1mf/kappa constant regions; not shown: human kappa light chain constant region) VH: EVKLVESGGGLVQPGGSLKLSCATSGFTFSDYYMYWIRQTPEKRLEWVAYITKGGGSTYYPDTVKGRFTISRDNAKNTLYLQVSRLKSEDTAIYYCARQTNYDFTMDYWGQGTSVTVSS VL: DIVMTQSHKFMSTSVGDRVSIICKASQDVGTSVAWYQQKPGQSPNLLIYWASARHTGVPDRFTGSGSGTDFTLTISNVQSEDLADYFCQQYSSYPLTFGAGTKLELK | 
